Data as given in publication PMC4606517, “Water-mediated recognition of t1-adenosine anchors Argonaute2 to microRNA targets”.

B1: guide + t1C target (dsRNA)
RNA 1: UUCACAUUGCCCAAGUCUCUU
RNA 2: CAAUGUGACAA
modifications: 5'-phosphate on guide
B2: guide + t1DAP target (dsRNA)
RNA 1: UUCACAUUGCCCAAGUCUCUU
RNA 2: CAAUGUGAAAA
modifications: 5'-phosphate on guide; target nt 9 = 2,6-diaminopurine (written A)
B3: guide + t1A target (dsRNA)
RNA 1: UUCACAUUGCCCAAGUCUCUU
RNA 2: CAAUGUGAAAA
modifications: 5'-phosphate on guide
B4: guide + t1G target (dsRNA)
RNA 1: UUCACAUUGCCCAAGUCUCUU
RNA 2: CAAUGUGAGAA
modifications: 5'-phosphate on guide
B5: guide + t1m6A target (dsRNA)
RNA 1: UUCACAUUGCCCAAGUCUCUU
RNA 2: CAAUGUGAAAA
modifications: 5'-phosphate on guide; target nt 9 = N6-methyladenosine (written A)
B6: guide + t1U target (dsRNA)
RNA 1: UUCACAUUGCCCAAGUCUCUU
RNA 2: CAAUGUGAUAA
modifications: 5'-phosphate on guide

molecular target: Ago2 wild type (Homo sapiens, UniProt Q9UKV8 1-859); experiment: filter binding; guide-loaded Ago2; target Kd; Filter binding: 30 mM Tris pH 8.0, 0.1 M K acetate, 2 mM Mg acetate, 0.5 mM TCEP, 0.005% NP-40, 0.01 mg/ml yeast tRNA, room temp, 45 min, 0.1 nM target; smFRET: 50 mM Tris pH 8.0, 50 mM NaCl, 60 mM KCl (RISC assembly buffer), 23 C; conditions: protein: recombinant; tags: His6; guide g2-g9 pairs target nt 1-8; 3' overhangs; t1 = target nt 9
Sequence (Q9UKV8 whole entry): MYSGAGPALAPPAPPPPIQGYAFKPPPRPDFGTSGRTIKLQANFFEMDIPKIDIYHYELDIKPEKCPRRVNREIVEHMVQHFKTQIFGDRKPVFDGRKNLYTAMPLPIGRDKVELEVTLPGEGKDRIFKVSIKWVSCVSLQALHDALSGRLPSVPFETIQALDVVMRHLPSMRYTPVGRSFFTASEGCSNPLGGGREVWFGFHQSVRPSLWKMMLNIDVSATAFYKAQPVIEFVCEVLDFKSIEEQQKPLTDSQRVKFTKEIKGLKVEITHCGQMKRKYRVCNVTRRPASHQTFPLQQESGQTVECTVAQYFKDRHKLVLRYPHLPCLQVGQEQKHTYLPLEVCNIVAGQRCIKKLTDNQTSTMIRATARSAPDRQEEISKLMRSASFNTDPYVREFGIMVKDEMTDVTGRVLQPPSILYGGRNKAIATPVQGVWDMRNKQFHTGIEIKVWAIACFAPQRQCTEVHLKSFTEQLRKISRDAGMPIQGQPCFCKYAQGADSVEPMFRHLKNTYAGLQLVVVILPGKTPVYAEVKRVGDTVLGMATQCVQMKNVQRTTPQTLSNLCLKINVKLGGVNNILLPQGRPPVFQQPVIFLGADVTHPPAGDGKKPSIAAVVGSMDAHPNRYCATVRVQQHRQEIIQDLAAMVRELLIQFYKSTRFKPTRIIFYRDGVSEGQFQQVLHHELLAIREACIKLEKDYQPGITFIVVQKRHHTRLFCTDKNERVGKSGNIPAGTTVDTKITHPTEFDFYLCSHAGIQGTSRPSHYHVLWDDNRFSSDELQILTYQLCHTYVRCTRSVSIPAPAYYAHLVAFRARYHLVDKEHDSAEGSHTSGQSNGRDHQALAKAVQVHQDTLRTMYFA

Binder | Kd [nM]
B1 | 1.8 ± 0.12
B2 | 0.45 ± 0.03
B3 | 0.75 ± 0.04
B4 | 1.9 ± 0.09
B5 | 1.8 ± 0.12
B6 | 1.9 ± 0.1

molecular target: Ago2 A481T (Homo sapiens, UniProt Q9UKV8 1-859, A481T); experiment: as above; conditions: protein: recombinant; tags: His6; guide g2-g9 pairs target nt 1-8; 3' overhangs; t1 = target nt 9
Sequence (Q9UKV8 whole entry A481T): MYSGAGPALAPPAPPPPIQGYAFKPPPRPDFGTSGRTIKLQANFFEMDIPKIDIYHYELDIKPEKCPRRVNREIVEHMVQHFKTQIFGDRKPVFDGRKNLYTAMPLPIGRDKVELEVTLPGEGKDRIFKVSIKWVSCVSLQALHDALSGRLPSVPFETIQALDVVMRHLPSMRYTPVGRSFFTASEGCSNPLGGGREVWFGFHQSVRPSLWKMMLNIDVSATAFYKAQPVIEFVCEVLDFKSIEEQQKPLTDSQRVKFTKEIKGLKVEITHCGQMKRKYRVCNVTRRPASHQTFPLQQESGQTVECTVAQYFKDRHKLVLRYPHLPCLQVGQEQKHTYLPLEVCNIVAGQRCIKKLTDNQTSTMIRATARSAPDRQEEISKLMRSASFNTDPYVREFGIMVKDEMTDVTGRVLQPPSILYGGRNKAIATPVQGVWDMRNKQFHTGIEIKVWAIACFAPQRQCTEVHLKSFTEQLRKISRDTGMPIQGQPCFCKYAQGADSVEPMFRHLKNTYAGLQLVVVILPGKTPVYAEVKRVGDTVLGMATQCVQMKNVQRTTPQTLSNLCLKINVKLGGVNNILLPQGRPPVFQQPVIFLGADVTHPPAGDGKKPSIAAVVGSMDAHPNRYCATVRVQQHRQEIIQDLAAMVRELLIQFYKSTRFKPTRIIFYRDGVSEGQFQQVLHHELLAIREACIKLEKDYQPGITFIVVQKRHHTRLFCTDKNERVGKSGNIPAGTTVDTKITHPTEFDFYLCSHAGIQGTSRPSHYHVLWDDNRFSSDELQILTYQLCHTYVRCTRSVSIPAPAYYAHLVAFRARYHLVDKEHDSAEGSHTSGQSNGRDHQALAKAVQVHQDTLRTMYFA

Binder | Kd [nM]
B3 | 1.5 ± 0.13
B4 | 1.8 ± 0.11
